Fluorescence counts data for one molecule are collected here from paper PMC4148261.

Where no end group is shown, it is not given here.

The target of this assay is Recombinant His-tagged Hsp70 protein, equivalent to HSPA1A. The assay is described as follows: ELISA; peptide ELISA: heat shock proteins coated on MaxiSorp plates (1 µg/well/100 µl, carbonate buffer pH 9.6, 4°C overnight), blocked with PBS 2% BSA; CF-labeled peptides 100, 50, 25 ng/ml, 27°C 30 min; fluorescence counts read. On the technique in general: An ELISA detects its analyte on a solid surface through an enzyme-linked reagent.

In the case of TKDNNLLGRFELSG (also: carboxyfluorescein (CF) label, position not given here) [carboxy-fluorescein (CF-) labeled 14-mer tumor penetrating peptide (TPP)], the fluorescence counts was 1200 counts.
